US20220001000A1 (Regeneron, published 2022)

B1: H4sH17675P (antibody, V domains shown)
VH: EVQLVESGGGLVQPGASLRLSCEASGFTLSFYAMHWVRQAPGKELEYVSGISGNGNSIYYRDSVKGRFTISRDNSKNTLYLQMGSVGAEDMAVYYCARSYSSGNSYYYYYGMDVWGQGTTVTVSS
VL: DIQMTQSPSSLSASVGDRITITCRASQSISSYLNWYQQKPGKAPNLLIYAASNLQSGVPSRFSGSGSGTDFTLTISSLQPEDFATYYCQQSYSTPPITFGQGTRLEIKR
B2: H4sH17363N (antibody, V domains shown)
VH: EVQLLESGGGLVQPGGSLRLSCAASGFTFSSYAMTWVRQAPGMGLEWVSVISGSGSETYYADSVKGRFTISRDNSKNTLYLQMNSLRAEDTAVYYCVKDSSYRSSSRAYYYYGMDVWGLGTTVTVSS
VL: DIQMTQSPSSLSASVGDRVTITCRASQSISSYLNWYQQKPGKAPKLLIYAVSILQSGVPSRFSGSGSGTDFTLTINSLQPEDFATYSCQQTYSTPPITFGQGTRLEIKR
B3: H4sH17364N (antibody, V domains shown)
VH: EVQLLESGGGLVQPGGSLRLSCAASGFTFSSYAMTWVRQAPGKGLEWVSVISGSGSETYYADSVKGRFTISRDNSKNTLYLQMNSLRAEDTAVYYCVKDSSYRSSSRAYYYYGMDVWGLGTTVTVSS
VL: DIQMTQSPSSLSASVGDRVTITCRASQSISSYLNWYQQKPGKAPKLLIYAVSILQSGVPSRFSGSGSGTDFTLTISSLQPEDFATYSCQQTYSTPPITFGQGTRLEIKR
B4: H4sH17672P (antibody, V domains shown)
VH: EVQLVESGGGLVQPGASLRLSCEASGFTLSFYSMHWVRQAPGRELEYVSGISGNGNNIYYRDSVKGRFTISRDNSKNTLNLQMGSVRAEDMGVYYCARSYSSGNSYNYYYGMDVWGQGTTVTVSS
VL: DIQMTQSPSSLSASVGDRVTITCRASQTISSYLNWYQQKPGKAPKLLIYAVSNLQSGVPSRFSGSGSGTDFTLTISSLQPEDFATYYCQQSYSTPPITFGQGTRLEIK
B5: H4sH17670P (antibody, V domains shown)
VH: EVQLVESGGDLVQPGTSLRLSCEASGFTLSFYAMYWVRQAPGKELELVSGISGNGESMFYGNSVKGRFSISRDNSKNTLYLQMGSVRAEDMAVYYCARAYASGNSYFFYYGMDVWGQGTTVTVSS
VL: not shown
B6: H4sH21080P (antibody, V domains shown)
VH: EVQLVESGGGLVQPGGSLRLSCAASGFTFSSYAMSWVRQAPGKGLEWVSGISGSGGTTYDADSVKGRFTISRDNSKNTLYLQMHSLRAEDTAAYYCAKDWNYGPYYYFGMDVWGQGTTVTVSS
VL: not shown
B7: H4sH21064P (antibody, V domains shown)
VH: EVQLVESGGGLVQPGGSLRLSCAASGFTFTFYAMHWVRQAPGKGLEYVSGISSNGGSTKYADSVKGRFTISRDNSKNTLYLQMGSLRAEDLAVYYCARSYASSSDYHYYYGMDVWGQGTTVTVSS
VL: not shown
B8: H4sH21079P (antibody, V domains shown)
VH: EVQLVESGGGLVKPGGSLRLSCAASGFTFSNAWMSWVRQAPGKGLEWVGRIKTRADGGTTDYAAPVKGRFTISRDDSKNTLYLQLNSLKTEDTAVYYCTSHNWNYEDFDYWGQGTLVTVSS
VL: DIQMTQSPSSLSASVGDRVTITCRASQSISNYLNWYQQKPGKAPKLLIYAASSLQSGVPSRFSGSGSGTDFTLTISSLQPEEFATYYCQQSYSIPYTFGQGTKLEIK
B9: H4sH17930N (antibody, V domains shown)
VH: EVQLVESGGGLVQPGGSLRLSCAASGFTFSYYALHWVRQAPGKGLEYVSAISGNGGSTYYADSVKGRFTISRDKSMSTVYLQVGSLRAEDMAVYYCARSYASSSDYHYYYGMDVWGQGTTVTVSS
VL: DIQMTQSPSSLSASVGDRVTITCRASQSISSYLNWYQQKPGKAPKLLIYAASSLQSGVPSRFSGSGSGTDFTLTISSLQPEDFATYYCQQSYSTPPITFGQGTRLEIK
B10: H4sH17930N2 (antibody, V domains shown)
VH: EVQLVESGGGLVQPGGSLRLSCAASGFTFSYYALHWVRQAPGKGLEYVSAISGNGGSTYYADSVKGRFTISRDKSMSTVYLQVGSLRAEDMAVYYCARSYASSSDYHYYYGMDVWGQGTTVTVSS
VL: not shown

Assays:
[1] = biological target: T1, HLA-A2/HPV16E7:11-19 on peptide-pulsed T2 cells (human; human papillomavirus type 16); assay: MSD cell binding, T2
Procedure: To determine anti-HLA-A2/HPV16E7 monoclonal antibody specificity, peptide-pulsed T2 cells loaded with target or off-target peptides (identified in the previous Example) were used. […] Approximately 6 million T2 cells per T-75 flask were cultured for 24 hours at 26° C. in 9 mL of AIM V® Medium containing 10 μg of human b2m and 100 μg of HPV16E7 peptide or off-target peptide (Tables 6 and 7). Peptide-loaded T2 cells were washed once with PBS without Ca2+/Mg2+ and counted. Approximately 10,000 cells per well of the peptide-loaded T2 or untreated T2 in cell washing buffer were seeded into the 96-well carbon electrode plates (MULTI-ARRAY high bind plate, MSD) and incubated for 1 hour at 37° C. to allow cells to adhere to the plate. Nonspecific binding sites were blocked using 2% BSA (w/v) in PBS for 1 hour at room temperature. […] Plates were incubated for 1 hour at room temperature, then washed to remove the unbound antibody using an AquaMax2000 plate washer (MDS Analytical Technologies). Plate-bound antibodies were detected with SULFO-TAG™-conjugated goat polyclonal anti-human IgG antibody specific for the Fc gamma fragment (Jackson Immunoresearch, Meso Scale Discovery) for 1 hour at room temperature. After washes, the plates were developed with the Read Buffer (MSD) according to manufacturer's recommended procedure, and the luminescent signals were recorded with a SECTOR Imager 600 (Meso Scale Discovery) instrument. The luminescence intensity, measured in relative light units (RLU), was recorded to indicate the binding intensity of each antibody at the range of concentrations.

[2] = biological target: T2, HLA-A2 with off-target peptide SH3GLB1:244-252 on pulsed T2 cells (human); assay: FACS, T2, 10 ug/ml;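 also: Peptide-pulsed T2 cells held overnight at 26 °C, then stained with antibodies at 10 µg/ml, WI values reported as fold change versus unstained cells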
T2 construct: also called Endophilin-B1
Procedure: (§1) T2 cells were then incubated overnight at 26° C., washed in staining buffer and stained with the indicated antibodies at a concentration of 10 μg/ml following the protocol described above. WI values were calculated and presented as fold change over unstained cells.

[3] = biological target: T3, HLA-A2 with off-target peptide CBL:83-91 on pulsed T2 cells (human); assay: FACS, T2, 10 ug/ml;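 also: Peptide-pulsed T2 cells held overnight at 26 °C, then stained with antibodies at 10 µg/ml, WI values reported as fold change versus unstained cells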
T3 construct: also called E3 ubiquitin-protein ligase CBL
Procedure: as §1

[4] = biological target: HLA-A2 with off-target peptide CAMKK1:388-396 on pulsed T2 cells (human); assay: FACS, T2, 10 ug/ml;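 also: Peptide-pulsed T2 cells held overnight at 26 °C, then stained with antibodies at 10 µg/ml, WI values reported as fold change versus unstained cells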
Procedure: as §1

[5] = biological target: HLA-A2 with off-target peptide SBK3:285-293 on pulsed T2 cells (human); assay: FACS, T2, 10 ug/ml;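 also: Peptide-pulsed T2 cells held overnight at 26 °C, then stained with antibodies at 10 µg/ml, WI values reported as fold change versus unstained cells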
Procedure: as §1

[6] = biological target: T1, HLA-A2/HPV16E7:11-19 on peptide-pulsed …; assay: FACS, T2, 10 ug/ml
Procedure: as §1

[7] = biological target: HLA-A2 with off-target peptide PKD1:2694-2702 on pulsed T2 cells (human); assay: FACS, T2, 10 ug/ml
Procedure: as §1

[8] = biological target: HLA-A2 with off-target peptide USP47:691-699 on pulsed T2 cells (human); assay: FACS, T2, 10 ug/ml
Procedure: as §1

[9] = biological target: HLA-A2 with off-target peptide NBR1:357-365 on pulsed T2 cells (human); assay: FACS, T2, 10 ug/ml
Procedure: as §1

[10] = biological target: HLA-A2 with off-target peptide PPP4R4:20-28 on pulsed T2 cells (human); assay: FACS, T2, 10 ug/ml
Procedure: as §1

[11] = biological target: T4, HLA-A2 with off-target peptide CHPF:463:471 on pulsed T2 cells (human); assay: FACS, T2, 10 ug/ml
T4 construct: also called Chondroitin sulfate synthase 2
Procedure: as §1

[12] = biological target: HLA-A2 with HPV16E7:11-19 alanine scanning peptide […] (L15A) on pulsed T2 cells (human; human papillomavirus type 16); assay: FACS, T2, Ala scan
Procedure: (§2) Alanine scanning was performed to determine which residues in the HPV16E7:11-19 peptide were critical for antibody binding. T2 cells were pulsed with alanine scanning peptides and stained with HPV16E7:11-19 antibodies as described above.

[13] = biological target: HLA-A2 with HPV16E7:11-19 alanine scanning peptide […] (L13A) on pulsed T2 cells (human; human papillomavirus type 16); assay: FACS, T2, Ala scan
Procedure: as §2

[14] = biological target: monomeric HLA-A2:HPV16E7(11-19) peptide complex, soluble (human; human papillomavirus type 16); assay: SPR 25C, mAb captured

Binder | EC50 [1] | Fold change over unstained [2] | Fold change over unstained [3] | Fold change over unstained [4] | Fold change over unstained [5] | Fold change over unstained [6] | Fold change over unstained [7] | Fold change over unstained [8] | Fold change over unstained [9] | Fold change over unstained [10] | Fold change over unstained [11] | FACS binding (fold over unstained) [12] | FACS binding (fold over unstained) [13] | Kd [14] | koff [14] | kon [14] | t½ [14]
B1 | 1.1 nM | 10.5 fold | 4.9 fold | 2.4 fold | 2.9 fold | 1200 fold | 2.9 fold | 13.3 fold | 2.2 fold | 5.5 fold | 5 fold | 1150 fold | 527 fold | 23.1 nM | 0.00138 s⁻¹ | 59900 M⁻¹ s⁻¹ | 8.4 min
B2 | 2.1 nM | 13.6 fold | 19.5 fold | 2 fold | 0.4 fold | 1000 fold | 1.2 fold | 0.6 fold | 3.6 fold | 6.1 fold | 7.4 fold | 1020 fold | 530 fold | 17.6 nM | 0.00154 s⁻¹ | 87200 M⁻¹ s⁻¹ | 7.5 min
B3 | 2 nM | 15.2 fold | 23.9 fold | 1 fold | 0.8 fold | 986 fold | 1 fold | 1.3 fold | 3 fold | 9 fold | 10.9 fold | 1010 fold | 490 fold | 18.3 nM | 0.00157 s⁻¹ | 85600 M⁻¹ s⁻¹ | 7.4 min
B4 | 0.45 nM |  |  |  |  |  |  |  |  |  |  |  |  | 6.37 nM | 0.000819 s⁻¹ | 129000 M⁻¹ s⁻¹ | 14.1 min
B5 | 1.3 nM |  |  |  |  |  |  |  |  |  |  |  |  | 17.5 nM |  |  | 
B6 | 0.22 nM |  |  |  |  |  |  |  |  |  |  |  |  | 218 nM | 0.039 s⁻¹ | 179000 M⁻¹ s⁻¹ | 0.3 min
B7 |  |  |  |  |  |  |  |  |  |  |  |  |  | 14.4 nM |  |  | 14.6 min
B8 | 1.1 nM |  |  |  |  |  |  |  |  |  |  |  |  | 290 nM | 0.0109 s⁻¹ | 37400 M⁻¹ s⁻¹ | 1.1 min
B9 | 3.1 nM |  |  |  |  |  |  |  |  |  |  |  |  | 10.2 nM |  |  | 14.5 min
B10 |  |  |  |  |  |  |  |  |  |  |  |  |  | 9.57 nM |  |  | 14.6 min
